Experiment [1] deals with T1, CD19 (UniProt P15391 20-556).
T1 chain: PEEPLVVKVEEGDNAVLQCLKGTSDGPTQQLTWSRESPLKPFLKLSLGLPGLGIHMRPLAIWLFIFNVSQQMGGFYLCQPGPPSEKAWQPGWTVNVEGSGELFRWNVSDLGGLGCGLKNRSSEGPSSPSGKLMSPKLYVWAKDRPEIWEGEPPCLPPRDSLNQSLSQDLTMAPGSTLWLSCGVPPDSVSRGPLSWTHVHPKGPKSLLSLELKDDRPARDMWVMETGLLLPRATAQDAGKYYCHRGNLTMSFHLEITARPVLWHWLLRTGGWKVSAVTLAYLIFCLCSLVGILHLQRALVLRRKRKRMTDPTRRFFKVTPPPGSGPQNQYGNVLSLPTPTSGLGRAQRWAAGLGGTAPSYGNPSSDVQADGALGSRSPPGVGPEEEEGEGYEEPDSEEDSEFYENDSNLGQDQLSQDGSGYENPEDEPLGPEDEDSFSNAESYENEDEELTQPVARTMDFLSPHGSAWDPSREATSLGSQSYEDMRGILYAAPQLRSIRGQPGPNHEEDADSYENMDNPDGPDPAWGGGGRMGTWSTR
The experiment is described as follows: flow cytometry cell binding; FIG. 8.

For experiment [2], the target named is T1, CD19. Put plainly: flow cytometry cell binding; FIG. 6.
Experiment [3] concerns the target T2, CD19 (UniProt P15391 20-556, limits assumed).
T2 sequence (looked up): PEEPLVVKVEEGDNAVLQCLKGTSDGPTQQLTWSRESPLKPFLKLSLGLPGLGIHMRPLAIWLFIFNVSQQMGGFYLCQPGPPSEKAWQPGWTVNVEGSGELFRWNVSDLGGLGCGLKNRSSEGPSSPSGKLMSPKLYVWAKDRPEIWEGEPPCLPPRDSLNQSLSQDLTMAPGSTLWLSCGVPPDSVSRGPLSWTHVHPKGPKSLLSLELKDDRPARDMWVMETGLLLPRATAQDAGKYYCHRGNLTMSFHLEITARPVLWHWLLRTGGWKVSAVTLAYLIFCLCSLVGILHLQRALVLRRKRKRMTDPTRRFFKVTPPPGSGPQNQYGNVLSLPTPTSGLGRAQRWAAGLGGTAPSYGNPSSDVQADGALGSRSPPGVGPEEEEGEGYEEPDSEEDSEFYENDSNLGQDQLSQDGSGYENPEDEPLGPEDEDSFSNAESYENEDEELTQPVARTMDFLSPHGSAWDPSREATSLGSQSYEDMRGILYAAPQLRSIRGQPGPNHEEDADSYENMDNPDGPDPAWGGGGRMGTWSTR
The experiment is described as follows: cell-based or functional assay.

The target of experiment [4] is CD19 (UniProt P15391). Put plainly: cell-based or functional assay.
Experiment [5] deals with T1, CD19. The experiment is described as follows: flow cytometry cell binding; FIG. 7. In general terms: A flow cytometer gives signals particle by particle.
Experiment [6] deals with T1, CD19. Put plainly: flow cytometry cell binding; FIG. 5; WT switch (no PNE).

B1: hFMCL2b-LCNT/hFMCH4c (Fab, V domains shown)
VH: QVQLQESGPGLVKPSETLSVTCTVSGVSLPDYGVSWIRQPPGKGLEWLGVIWGSETTYYNSALKSRLTISKDNSKNQVSLKMSSLTAADTAVYYCAKHYYYGGSYAMDYWGQGTLVTVSS
VL: DIQMTQSPSSLSASVGDRVTITCRASQDISKYLNWYQQKPGKAVKLLIYHTSRLHSGVPSRFSGSGSGTDYTLTISSLQPEDFATYFCQQGATLPYTFGQGTKLEIK
Broadly, the EC50 is the concentration at which the effect is half-maximal. Low values mean higher potency in that assay, high ones lower potency in that assay. As for B1, the EC50 in experiment [1] stood at 1590 pM. Also, the EC50 in experiment [2] was determined as 1260 pM. Besides, in experiment [3], the “EC50 of cytotoxicity (LDH), sCAR-T cells + switch vs CD19+ RS4;11, Average of the repeat assays” value is 4.6 pM; the “EC50 of cytotoxicity (LDH), sCAR-T cells + switch vs CD19+ RS4;11, assay DTR-5-15 (PBMC)” value (shortened to “EC50 … vs CD19+ RS4;11, assay DTR-5-15 (PBMC)”) amounted to 4.57 pM; the “EC50 of cytotoxicity (LDH), sCAR-T cells + switch vs CD19+ RS4;11, assay DTR-5-16 (CD4:CD8)” value (“EC50 … vs CD19+ RS4;11, assay DTR-5-16 (CD4:CD8)” for short) is 4.61 pM; the “EC50 of cytotoxicity (LDH), sCAR-T cells + switch vs CD19+ RS4;11, assay DTR-5-50 (PBMC)” value (shortened to “EC50 … vs CD19+ RS4;11, assay DTR-5-50 (PBMC)”) was 3.78 pM. Besides, the “EC50 of cytotoxicity (LDH), sCAR-T cells + switch vs CD19+ RS4;11, assay DTR-5-51 (CD4:CD8)” value (“EC50 … vs CD19+ RS4;11, assay DTR-5-51 (CD4:CD8)” for short) in experiment [3] came to 5.45 pM. Also, in experiment [4], the EC50 of cytotoxicity (LDH), sCAR-T cells + switch vs CD19+ RS4;11, Average of the repeat assays worked out at 10.2 pM; the EC50 of cytotoxicity (LDH), sCAR-T cells + switch vs CD19+ RS4;11, assay DTR-5-15 (PBMC) came to 8.41 pM; the EC50 of cytotoxicity (LDH), sCAR-T cells + switch vs CD19+ RS4;11, assay DTR-5-16 (CD4:CD8) is 8.47 pM; the EC50 of cytotoxicity (LDH), sCAR-T cells + switch vs CD19+ RS4;11, assay DTR-5-50 (PBMC) worked out at 7.54 pM. Besides, in experiment [4], the EC50 of cytotoxicity (LDH), sCAR-T cells + switch vs CD19+ RS4;11, assay DTR-5-51 (CD4:CD8) came out at 16.5 pM.

B2: hFMCL2/H4b wt (antibody, V domains shown)
VH: QVQLQESGPGLVKPSETLSVTCTVSGVSLPDYGVSWIRQPPGKGLEWLGVIWGSETTYYNPSLKSRLTISKDNSKNQVSLKMSSLTAADTAVYYCAKHYYYGGSYAMDYWGQGTLVTVSS
VL: DIQMTQSPSSLSASVGDRVTITCRASQDISKYLNWYQQKPGKAPKLLIYHTSRLHSGVPSRFSGSGSGTDYTLTISSLQPEDFATYYCQQGATLPYTFGQGTKLEIK
In turn, B2 registered an EC50 in experiment [1] of 3840 pM.

B3: hFMCL2a-LCNT/hFMCH4c (Fab, V domains shown)
VH: QVQLQESGPGLVKPSETLSVTCTVSGVSLPDYGVSWIRQPPGKGLEWLGVIWGSETTYYNSALKSRLTISKDNSKNQVSLKMSSLTAADTAVYYCAKHYYYGGSYAMDYWGQGTLVTVSS
VL: DIQMTQSPSSLSASVGDRVTITCRASQDISKYLNWYQQKPGKAVKLLIYHTSRLHSGVPSRFSGSGSGTDYTLTISSLQPEDFATYYCQQGATLPYTFGQGTKLEIK
In turn, B3 had an EC50 in experiment [1] of 1810 pM. The same molecule gave an EC50 in experiment [2] of 1700 pM. Besides, in experiment [3], the “EC50 of cytotoxicity (LDH), sCAR-T cells + switch vs CD19+ RS4;11, Average of the repeat assays” value is 9.5 pM; the “EC50 … vs CD19+ RS4;11, assay DTR-5-15 (PBMC)” value was 4.43 pM; the “EC50 … vs CD19+ RS4;11, assay DTR-5-16 (CD4:CD8)” value was 9.32 pM; the “EC50 … vs CD19+ RS4;11, assay DTR-5-50 (PBMC)” value was determined as 7.05 pM. For the same molecule, the “EC50 … vs CD19+ RS4;11, assay DTR-5-51 (CD4:CD8)” value in experiment [3] was determined as 17.2 pM.

B4: hFMCL2c-LCNT/hFMCH4b (Fab, V domains shown)
VH: QVQLQESGPGLVKPSETLSVTCTVSGVSLPDYGVSWIRQPPGKGLEWLGVIWGSETTYYNPSLKSRLTISKDNSKNQVSLKMSSLTAADTAVYYCAKHYYYGGSYAMDYWGQGTLVTVSS
VL: DIQMTQSPSSLSASVGDRVTITCRASQDISKYLNWYQQKPGKAVKLLIYHTSRLHSGVPSRFSGSGSGTDYTLTISSLQPEDFATYFCQQGATLPYTFGQGTKLEIK
In the case of B4, the response in experiment [2] was half-maximal at 1380 pM (EC50). Moreover, in experiment [3], the “EC50 of cytotoxicity (LDH), sCAR-T cells + switch vs CD19+ RS4;11, Average of the repeat assays” value is 5.18 pM; the “EC50 … vs CD19+ RS4;11, assay DTR-5-15 (PBMC)” value is 4.04 pM; the “EC50 … vs CD19+ RS4;11, assay DTR-5-16 (CD4:CD8)” value is 3.25 pM; the “EC50 … vs CD19+ RS4;11, assay DTR-5-50 (PBMC)” value was found to be 3.78 pM. Besides, the “EC50 … vs CD19+ RS4;11, assay DTR-5-51 (CD4:CD8)” value in experiment [3] was 9.65 pM. In experiment [5], this molecule gave an EC50 of 1680 pM.

B5: hFMCL2/H4b WT (antibody, V domains shown)
VH: QVQLQESGPGLVKPSETLSVTCTVSGVSLPDYGVSWIRQPPGKGLEWLGVIWGSETTYYNPSLKSRLTISKDNSKNQVSLKMSSLTAADTAVYYCAKHYYYGGSYAMDYWGQGTLVTVSS
VL: DIQMTQSPSSLSASVGDRVTITCRASQDISKYLNWYQQKPGKAPKLLIYHTSRLHSGVPSRFSGSGSGTDYTLTISSLQPEDFATYYCQQGATLPYTFGQGTKLEIK
Take B5: the values for the EC50 in experiment [5] and in experiment [6] were 5380 pM and 4130 pM, respectively.

B6: hFMCL2/H4z (antibody, V domains shown)
VH: QVQLQESGPGLVKPSETLSVTCTVSGVSLPDYGVSWIRQPPGKGLEWLGVIWGSETTYYNSSLKSRLTISKDNSKNQVSLKMSSLTAADTAVYYCAKHYYYGGSYAMDYWGQGTLVTVSS
VL: DIQMTQSPSSLSASVGDRVTITCRASQDISKYLNWYQQKPGKAPKLLIYHTSRLHSGVPSRFSGSGSGTDYTLTISSLQPEDFATYYCQQGATLPYTFGQGTKLEIK
With B6, the 50% effective concentration (EC50) is 13100 pM in experiment [1] and 12400 pM in experiment [2].

B7: hFMCL2b-LCNT/hFMCH4b (Fab, V domains shown)
VH: QVQLQESGPGLVKPSETLSVTCTVSGVSLPDYGVSWIRQPPGKGLEWLGVIWGSETTYYNPSLKSRLTISKDNSKNQVSLKMSSLTAADTAVYYCAKHYYYGGSYAMDYWGQGTLVTVSS
VL: DIQMTQSPSSLSASVGDRVTITCRASQDISKYLNWYQQKPGKAVKLLIYHTSRLHSGVPSRFSGSGSGTDYTLTISSLQPEDFATYFCQQGATLPYTFGQGTKLEIK
With B7, the EC50 in experiment [2] stood at 1220 pM. Also, in experiment [3], the “EC50 of cytotoxicity (LDH), sCAR-T cells + switch vs CD19+ RS4;11, Average of the repeat assays” value turned out to be 6.21 pM; the “EC50 … vs CD19+ RS4;11, assay DTR-5-15 (PBMC)” value was determined as 5.17 pM; the “EC50 … vs CD19+ RS4;11, assay DTR-5-16 (CD4:CD8)” value was found to be 5.78 pM; the “EC50 … vs CD19+ RS4;11, assay DTR-5-50 (PBMC)” value was 3.93 pM. Besides, the “EC50 … vs CD19+ RS4;11, assay DTR-5-51 (CD4:CD8)” value in experiment [3] stood at 9.96 pM. In experiment [5], a half-maximal response (EC50) required 2270 pM.
